OD 405 nm data for one substance are collected here from US20080207498A1, “Methods for Treating Alzheimer's Disease” (priority 2005, published 2008).

The target of test [1] is Purified human C1q (Quidel Corp.) (human) (UniProt P02745). Briefly: reverse ELISA: PAP without competitor on C1q-coated plate. (In general: ELISA stands for enzyme-linked immunosorbent assay.)
The next test concerns the target Highly purified FcγIII. Briefly: reverse ELISA: PAP without peptide on FcγIII-coated plate.
The target in another test is Highly purified FcγIIa. The experiment in a line: reverse ELISA: PAP without peptide on FcγIIa-coated plate.
The target in another test is Highly purified FcγIIb. The experiment in a line: reverse ELISA: PAP without peptide on FcγIIb-coated plate.
Test [2] addresses Human wt tau protein (441 residues; Sigma-Aldrich) (human) (UniProt P10636). The experiment in a line: reverse ELISA: PAP without peptide on plate coated with human wt tau.
The target of test [3] is Human wt β amyloid peptide 1-40 (amyloid precursor protein (APP) fragment 1-40; Sigma-Aldrich) (human). Briefly: reverse ELISA: PAP without peptide on plate coated with human wt β amyloid peptide 1-40.

Preformed immune complex of peroxidase and rabbit anti-peroxidase IgG (PAP complex), sequence (P00433 31-338, one chain of several): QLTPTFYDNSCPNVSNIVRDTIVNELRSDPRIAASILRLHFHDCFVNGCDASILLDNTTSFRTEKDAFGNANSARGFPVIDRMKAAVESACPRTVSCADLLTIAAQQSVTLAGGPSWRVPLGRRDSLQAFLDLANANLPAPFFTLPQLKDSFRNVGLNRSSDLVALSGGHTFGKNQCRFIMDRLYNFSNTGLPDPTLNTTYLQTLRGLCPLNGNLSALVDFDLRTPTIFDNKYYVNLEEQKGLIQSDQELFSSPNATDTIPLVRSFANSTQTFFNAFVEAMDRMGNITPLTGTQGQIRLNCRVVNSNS
Human wt tau protein (441 residues; Sigma-Aldrich) (human), sequence (P10636 other isoform, or with tags, fused parts or gaps limits assumed): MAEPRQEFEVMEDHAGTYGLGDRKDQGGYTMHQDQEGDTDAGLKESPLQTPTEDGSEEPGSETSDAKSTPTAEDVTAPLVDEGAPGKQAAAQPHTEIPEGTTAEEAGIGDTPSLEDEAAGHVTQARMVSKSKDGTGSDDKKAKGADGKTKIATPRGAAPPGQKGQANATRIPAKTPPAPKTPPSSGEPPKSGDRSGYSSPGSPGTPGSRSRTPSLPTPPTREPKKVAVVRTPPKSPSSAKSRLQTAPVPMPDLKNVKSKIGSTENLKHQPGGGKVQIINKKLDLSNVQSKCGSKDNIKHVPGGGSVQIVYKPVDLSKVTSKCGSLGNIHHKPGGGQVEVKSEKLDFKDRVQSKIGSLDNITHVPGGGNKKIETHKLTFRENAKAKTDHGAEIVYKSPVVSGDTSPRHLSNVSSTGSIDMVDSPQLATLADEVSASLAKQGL
Purified human C1q (Quidel Corp.) (human), sequence (P02745 23-245 limits assumed, chain 1 of 3): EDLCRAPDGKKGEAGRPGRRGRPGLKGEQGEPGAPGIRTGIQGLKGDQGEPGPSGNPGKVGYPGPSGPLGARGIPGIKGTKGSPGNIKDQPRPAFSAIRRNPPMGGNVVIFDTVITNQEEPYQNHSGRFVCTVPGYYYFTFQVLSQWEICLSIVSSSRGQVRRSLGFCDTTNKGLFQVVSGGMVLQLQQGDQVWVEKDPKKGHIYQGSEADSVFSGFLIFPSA
Purified human C1q (Quidel Corp.) (human), sequence (P02746 28-253 limits assumed, chain 2 of 3, further chain): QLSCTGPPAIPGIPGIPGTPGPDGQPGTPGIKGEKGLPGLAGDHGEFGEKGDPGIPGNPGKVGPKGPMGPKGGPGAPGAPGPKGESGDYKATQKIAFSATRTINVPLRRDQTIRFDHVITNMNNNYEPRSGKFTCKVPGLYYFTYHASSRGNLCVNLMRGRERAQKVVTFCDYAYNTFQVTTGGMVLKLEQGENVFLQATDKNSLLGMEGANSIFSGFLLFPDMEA
Purified human C1q (Quidel Corp.) (human), sequence (P02747 29-245 limits assumed, chain 3 of 3, further chain): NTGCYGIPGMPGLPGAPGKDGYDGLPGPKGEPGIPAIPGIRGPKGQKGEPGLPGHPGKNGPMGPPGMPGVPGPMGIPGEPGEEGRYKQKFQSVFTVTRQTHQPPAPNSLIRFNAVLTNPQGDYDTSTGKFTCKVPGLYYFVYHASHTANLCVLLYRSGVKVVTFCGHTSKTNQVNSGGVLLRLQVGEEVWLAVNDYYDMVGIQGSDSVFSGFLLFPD

“Preformed immune complex of peroxidase and rabbit anti-peroxidase IgG (PAP complex) (from UniProt P00433 31-338)”: the OD 405 nm in test [1] worked out at 2.35 OD; in the test with Highly purified FcγIII it was 1.59 OD; with Highly purified FcγIIa it was 1.6 OD; with Highly purified FcγIIb, 1.39 OD; in test [2], 0.695 OD; in test [3] it was 3.28 OD.
